Key:
[1] = target: CD2 ligand on sheep erythrocytes (T11TS, the sheep homologue of LFA-3) (sheep (endogenous in sheep erythrocytes))
[2] = target: LFA-3 surface glycoprotein on the human B-lymphoblastoid line JY (human (endogenous in JY)) (UniProt P19256); experiment: flow cytometry on cells
Chain of UniProt P19256 (P19256 29-250): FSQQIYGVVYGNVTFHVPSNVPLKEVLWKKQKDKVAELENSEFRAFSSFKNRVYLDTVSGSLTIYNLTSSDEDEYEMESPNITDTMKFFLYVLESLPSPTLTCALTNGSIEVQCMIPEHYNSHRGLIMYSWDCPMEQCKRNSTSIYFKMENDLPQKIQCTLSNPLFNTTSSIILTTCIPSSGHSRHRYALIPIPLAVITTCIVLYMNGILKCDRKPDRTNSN

half-maximal inhibition of sheep erythrocyte-Jurkat T cell rosettes [1]: 0.63 to 1.25 µM | percent reduction of specific anti-LFA-3 reactivity at 10 uM T11ex2 [2]: 85%
Substance: T11ex2, recombinant soluble CD2 (T11) molecule that corresponds to the two extracellular segment exons (domain or fragment)

Reference: PMC2189283
